The text below walks through data of patent publication US20060251658A1 (Sanofi, published 2006).

The assay has as its target Recombinant human TGFβ1 (human, UniProt P01137 279-390). The assay is described as follows: cell-based or functional assay.

Chain of Recombinant human TGFβ1 (P01137 279-390 limits assumed): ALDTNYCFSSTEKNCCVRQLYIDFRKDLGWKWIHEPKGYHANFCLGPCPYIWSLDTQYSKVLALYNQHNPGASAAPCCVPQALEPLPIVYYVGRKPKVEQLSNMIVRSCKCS

B1: PET1074B9 germlined IgG4 (antibody, V domains shown)
VH: QVQLVQSGAEVKKPGSSVKVSCKASGYTFSSNVISWVRQAPGQGLEWMGGVIPIVDIANYAQRFKGRVTITADESTSTTYMELSSLRSEDTAVYYCALPRAFVLDAMDYWGQGTLVTVSS
VL: ETVLTQSPGTLSLSPGERATLSCRASQSLGSSYLAWYQQKPGQAPRLLIYGASSRAPGIPDRFSGSGSGTDFTLTISRLEPEDFAVYYCQQYADSPITFGQGTRLEIK
B1: the “Geometric Mean IC50, MLEC proliferation assay (n = 6; full dose response curve not obtained)” value is < 1 nM.

B2: 1D11.16 murine pan-specific anti-TGFβ monoclonal antibody (antibody, from another filing, V domains shown)
VH: QVQLQQSGPELVRPGASVKLSCKASGYIFITYWMNWVKQRPGQGLEWIGQIFPASGSTNYNEMFEGKATLTVDTSSSTAYMQLSSLTSEDSAVYYCARGDGNYALDAMDYWGQGTSVTVSS
VL: DIVLTQSPASLAVSLGQRATISCRASESVDSYGNSFMHWYQQKSGQPPKLLIYLASNLESGVPARFSGSGSRTDFTLTIDPVEADDAATYYCQQNNEDPLTFGAGTKLEIK
B2: the % neutralisation at 91 pM antibody, MLEC proliferation assay stood at 12%.
